Reference: patent US20150361176A1 (GlaxoSmithKline, published 2015)
Positions count from the first letter of the chain named. Numbers in names are those of the source.

T1: mouse TGF-βRII on MC3T3-E1 cells (mouse osteoblasts) (mouse, UniProt Q62312 24-567)
T1 sequence (looked up): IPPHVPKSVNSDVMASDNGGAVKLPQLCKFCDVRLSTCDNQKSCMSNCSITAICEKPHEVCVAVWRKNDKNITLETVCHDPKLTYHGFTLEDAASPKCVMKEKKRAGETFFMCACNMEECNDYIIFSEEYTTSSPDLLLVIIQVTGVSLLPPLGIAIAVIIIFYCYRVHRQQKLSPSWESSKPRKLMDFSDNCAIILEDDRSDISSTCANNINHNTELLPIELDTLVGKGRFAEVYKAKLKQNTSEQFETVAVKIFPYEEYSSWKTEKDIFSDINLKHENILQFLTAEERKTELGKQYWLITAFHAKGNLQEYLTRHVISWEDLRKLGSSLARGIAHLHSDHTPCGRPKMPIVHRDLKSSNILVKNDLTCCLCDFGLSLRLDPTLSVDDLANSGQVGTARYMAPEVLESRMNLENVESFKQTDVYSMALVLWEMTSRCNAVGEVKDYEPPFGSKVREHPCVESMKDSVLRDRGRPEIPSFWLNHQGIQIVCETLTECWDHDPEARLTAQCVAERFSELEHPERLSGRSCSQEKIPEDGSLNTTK

B1: DOM23m-4 (VHH, not shown: small tags and cut ends)
VHH: EVQLLESGGGLVQPGGSLRLSCAASGFTFTTYGMGWVRQAPGKGLEWVSWIEKTGNKTYYADSVKGRFTISRDNSKNTLYLQMNSLRAEDTAVYYCAKAGRHIKVRSRDFDYWGQGTLVTVSS
B2: DOM23m-72 (VHH, not shown: small tags and cut ends)
VHH: EVQLLESGGGLVQPGGSLRLSCAASGFTFMDYDMSWVRQAPGKGLEWVSMIREDGGKTYYADSVKGRFTISRDNSKNTLYLQMNSLRAEDTAVYYCAKARVPYRRGHRDNFDYWGQGTLVTVSS
B3: DOM23m-101 (VHH, not shown: small tags and cut ends)
VHH: EVQLLESGGGLVQPGGSLRLSCAASGFTFSEYDMAWVRQAPGKGLEWVSRIRSDGVRTYYADSVKGRFTISRDNSKNTLYLQMNSLRAEDTAVYYCAKDRAKNGWFDYWGQGTLVTVSS
B4: DOM23h-352 (VHH, not shown: small tags and cut ends)
VHH: EVQLLESGGGLVQPGGSLRLSCAASGFTFDKYKMAWVRQAPGKGLEWVSLIFPNGVPTYYANSVKGRFTISRDNSKNTLYLQMNSLRAEDTAVYYCAKYSGQGRDFDYWGQGTLVTVSS
B5: DOM23m-62 (VHH, not shown: small tags and cut ends)
VHH: EVQLLESGGGLVQPGGSLRLSCAASGFTFGQESMYWVRQAPGKGLEWVSAISGSGGSTYYADSVKGRFTISRDNSKNTLYLQMNSLRAEDTAVYYCAKSGTRIKQGFDYWGQGTLVTVSS
B6: DOM23m-32 (VHH, not shown: small tags and cut ends)
VHH: EVQLLESGGGLVQPGGSLRLSCAASGFTFFEYPMGWVRQAPGKGLEWVSVISGDGQRTYYADSVKGRFTISRDNSKNTLYLQMNSLRAEDTAVYYCAKSHTGTVRHLETFDYWGQGTLVTVSS
B7: DOM23m-29 (VHH, not shown: small tags and cut ends)
VHH: EVQLLESGGGLVQPGGSLRLSCAASGFTFKRYSMGWVRQAPGKGLEWVSVINDLGSLTYYADSVKGRFTISRDNSKNTLYLQMNSLRAEDTAVYYCAKGNISMVRPGSWFDYWGQGTLVTVSS
B8: DOM23m-99 (VHH, not shown: small tags and cut ends)
VHH: EVQLLESGGGLVQPGGSLRLSCAASGFTFDRYRMMWVRQAPGKGLEWVSTIDPAGMLTYYADSVKGRFTISRDNSKNTLYLQMNSLRAEDTAVYYCAKRLASRSHFDYWGQGTLVTVSS
B9: DOM23m-81 (VHH, not shown: small tags and cut ends)
VHH: EVQLLESGGGLVQPGGSLRLSCAASGFTFEPVIMGWVRQAPGKGLEWVSAIEARGGGTYYADSVKGRFTISRDNSKNTLYLQMNSLRAEDTAVYYCAKPGRHLSQDFDYWGQGTLVTVSS
B10: DOM23h-439-43 (DOM23h-439-25 + C-terminal Alanine + 64R) (VHH)
VHH: EVQLLESGGGLVQPGGSLRLSCAASGFTFGTEQMWWVRQAPGKGLEFVSRIDSPGGRTYYADSVRGRFTISRDNSKNTLYLQMNSLRAEDTAVYYCAKRRPTGVSGTFYDYWGQGTLVTVSS
notes: human VH dAb
B11: DOM23h-439-44 (DOM23h-439-25 + C-terminal Alanine + 61N64R) (VHH)
VHH: B10 VHH with D62N
notes: human VH dAb
B12: DOM23h-271-21 (VHH)
VHH: EVQLLESGGGLVQPGGSLRLSCAASGFTFTEYRMWWVRQAPGKGLEWVSAIEPIGNRTYYADSVKGRFTISRDNSKNTLYLQMNSLRAEDTAVYYCAKQMPGRKWTAKFRWDYWGQGTLVIVSS
notes: human VH dAb from DNA display; expressed from pDOM13
B13: DOM23h-271-27 (VHH)
VHH: B12 VHH with N56Q, R57K, M100I, K108N, F109S, W111F
notes: as for B12
B14: DOM23h-271 mutant 1A2 (R at 61, A at 64) (VHH, name in Kabat numbering)
VHH: B12 VHH with D62R, K65A, M100I, K108N, F109S, W111F, I121T
notes: human VH dAb; expressed from pDOM13
B15: DOM23h-271 mutant 1G11 (R at 61, M at 64) (VHH, name in Kabat numbering)
VHH: B12 VHH with D62R, K65M, M100I, K108N, F109S, W111F, I121T
notes: human VH dAb; expressed from pDOM13; also called RM
B16: DOM23h-271 mutant 1B2 (V at 61, W at 64) (VHH, name in Kabat numbering)
VHH: B12 VHH with D62V, K65W, M100I, K108N, F109S, W111F, I121T
notes: human VH dAb; expressed from pDOM13; also called VW
B17: DOM23h-271 mutant 1H11 (L at 61, W at 64) (VHH, name in Kabat numbering)
VHH: B12 VHH with D62L, K65W, M100I, K108N, F109S, W111F, I121T
notes: human VH dAb; expressed from pDOM13; also called LW
B18: DOM23h-271 mutant 3D4 (K at 61, T at 64) (VHH, name in Kabat numbering)
VHH: B12 VHH with D62K, K65T, M100I, K108N, F109S, W111F, I121T
notes: human VH dAb; expressed from pDOM13; also called KT
B19: DOM23h-271 mutant 1D5 (K at 61, F at 64) (VHH, name in Kabat numbering)
VHH: B12 VHH with D62K, K65F, M100I, K108N, F109S, W111F, I121T
notes: human VH dAb; expressed from pDOM13; also called KF
B20: DOM23h-271 mutant 1B11 (R at 61, V at 64) (VHH, name in Kabat numbering)
VHH: B12 VHH with D62R, K65V, M100I, K108N, F109S, W111F, I121T
notes: human VH dAb; expressed from pDOM13; also called RV
B21: DOM23h-271 mutant 3D9 (K at 61, G at 64) (VHH, name in Kabat numbering)
VHH: B12 VHH with D62K, K65G, M100I, K108N, F109S, W111F, I121T
notes: human VH dAb; expressed from pDOM13; also called KG
B22: DOM23h-271 mutant 1D9 (R at 61, D at 64) (VHH, name in Kabat numbering)
VHH: B12 VHH with D62R, K65D, M100I, K108N, F109S, W111F, I121T
notes: human VH dAb; expressed from pDOM13; also called RD
B23: DOM23h-271 mutant 1E6 (R at 61, Y at 64) (VHH, name in Kabat numbering)
VHH: B12 VHH with D62R, K65Y, M100I, K108N, F109S, W111F, I121T
notes: human VH dAb; expressed from pDOM13; also called RY
B24: DOM23h-271 mutant 2C12 (D61N, K64R) (VHH, name in Kabat numbering)
VHH: B12 VHH with D62N, K65R, M100I, K108N, F109S, W111F, I121T
notes: human VH dAb; expressed from pDOM13; also called NR
B25: DOM23h-271 mutant 3F11 (R at 61, E at 64) (VHH, name in Kabat numbering)
VHH: B12 VHH with D62R, K65E, M100I, K108N, F109S, W111F, I121T
notes: human VH dAb; expressed from pDOM13; also called RE

Target: T2, human TGF-βRII on cells (SBE-bla HEK 293T cells; A549 cells) (human, UniProt P37173 23-567)
T2 sequence (P37173 23-567): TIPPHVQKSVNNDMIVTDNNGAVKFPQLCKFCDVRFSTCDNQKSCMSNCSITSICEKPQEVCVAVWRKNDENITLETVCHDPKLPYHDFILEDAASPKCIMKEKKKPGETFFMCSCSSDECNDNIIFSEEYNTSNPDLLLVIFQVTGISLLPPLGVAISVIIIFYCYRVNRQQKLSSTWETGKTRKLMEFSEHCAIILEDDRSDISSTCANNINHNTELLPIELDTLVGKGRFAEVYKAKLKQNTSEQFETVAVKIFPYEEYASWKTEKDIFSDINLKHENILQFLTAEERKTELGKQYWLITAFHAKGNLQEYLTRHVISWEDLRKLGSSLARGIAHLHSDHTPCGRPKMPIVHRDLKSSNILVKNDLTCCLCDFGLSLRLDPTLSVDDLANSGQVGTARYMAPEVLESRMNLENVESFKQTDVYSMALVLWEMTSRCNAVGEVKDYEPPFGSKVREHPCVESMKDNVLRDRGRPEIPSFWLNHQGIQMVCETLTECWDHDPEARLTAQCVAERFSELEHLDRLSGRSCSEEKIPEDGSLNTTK
Assay: cell-based or functional assay

max % inhibition, Average (Human IL-11 release, h1)	max % inhibition, Average (SBE-bla HEK CELLSENSOR assay, h2)	Binder
70.7%	69%	B1
1.7%		B2
	59.8%	B3
	46.7%	B4
79%		B5

Target: T1, mouse TGF-βRII on MC3T3-E1 cells (mouse …)
Assay: cell-based or functional assay

max % inhibition, Average (Mouse 3T3 cell assay, method m1)	max % inhibition, Average (Mouse 3T3 cell assay, method m2)	Binder
73.3%		B1
39.7%		B6
17.5%		B2
	48%	B3
54.2%		B7
	48%	B4
	46.5%	B8
78.6%		B5
	30.3%	B9

Target: T2, human TGF-βRII on cells (SBE-bla HEK …)
Assay: cell-based or functional assay
Remark: another data set of the same source

IC50 nM, Mean (SBE-bla HEK 293T cell sensor assay)	Binder
1 nM	B10
1.3 nM	B11

Target: T3, recombinant human TGF-β RII/Fc chimera protein (human, UniProt P37173 24-159)
T3 construct: range 24-159; Made in HEK-F cells; Biotinylated where it was put on SA chips, otherwise captured by anti-human IgG; also called human TGFbRII/Fc; hRII-Fc; not shown: Fc region of human IgG1
T3 sequence (P37173 24-159 limits assumed, change not shown): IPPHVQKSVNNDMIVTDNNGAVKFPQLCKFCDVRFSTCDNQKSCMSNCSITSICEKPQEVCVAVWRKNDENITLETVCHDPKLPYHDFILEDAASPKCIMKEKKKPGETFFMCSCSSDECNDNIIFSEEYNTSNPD
Assay: SPR Biacore, human TGFbRII-FC, 1:1 model

Kd	koff	kon	Binder
0.147 nM	0.000472 s⁻¹	3.21e+06 M⁻¹ s⁻¹	B12
0.578 nM	0.00126 s⁻¹	2.17e+06 M⁻¹ s⁻¹	B13

Target: T3, recombinant human TGF-β RII/Fc chimera …
Assay: SPR Biacore A100, antigen-Fc captured by anti-human IgG, purified dAb, 1:1 model
Protocol: BIACORE™ A100 analysis was carried out using a capture surface on a CM5 chip. Anti-human IgG was used as the capturing agent and coupled to a CM5 biosensor chip by primary amine coupling. The Antigen molecule fused to the human Fc was captured on this immobilised surface to a level from 200 to 300 resonance units and supernatants or purified domain antibodies were passed over this captured surface. An injection of media or buffer over the captured antigen surface was used for double referencing. On each flow cell, a protein A spot allowed to confirm the presence of domain antibody on each sample injected. […] All runs were carried out at 25° C. using HBS-EP buffer as running buffer. Data were generated using the BIACORE™ A100 and analyzed using its inherent software. Kinetics from purified samples were fitted to the 1:1 binding model while supernatant off-rates were analyzed using the 1:1 dissociation model and/or using the binding level and the stability level of each sample in comparison to the parent molecule.
A selection of mutants with improved off-rate were purified and subjected to full BIACORE™ A100 kinetic analysis to determine their affinity (Table 10). The thermal stability of the mutants was also determined by generation of melting profiles in the presence of SYPRO™ Orange (Invitrogen). Briefly, the purified dAbs were diluted to 50 and 100 ug/ml in a 1:500 dilution of SYPRO™ Orange in PBS, and subjected to a 30-90° C. melt curve in a Mini OPTICON™ PCR machine (BioRad). The Tm of the major positive transition was determined at each concentration and used to calculate an estimated Tm value at 1 mg/ml as an indication of the melting temperature for comparison (Table 10).

Kd	Binder
2.24 nM	B14
0.97 nM	B15
1.79 nM	B16
4.17 nM	B17
4.26 nM	B18
3.69 nM	B19
1.88 nM	B20
4.34 nM	B21
1.17 nM	B22
1.17 nM	B23
3.34 nM	B24
3.27 nM	B25

Target: T3, recombinant human TGF-β RII/Fc chimera …
Assay: SPR Biacore T200, receptor-Fc captured by anti-human IgG, dAb as analyte, 1:1 model
Protocol: (§1) Anti-human IgG was immobilised on a Biacore CM4 chip by primary amine coupling according to the manufacturer's instructions. Human TGF-β RII/Fc, cynomolgus TGF-β RII/Fc or human Fc fragment were captured on this surface. Domain antibodies were passed over the two captured receptors at 3 concentrations of 100, 10 and 1 nM (DOM23h-439 dAbs) or 100, 25 and 6.25 nM (DOM23h-271 dAbs). Only the 100 nM concentration of each dab was passed over human Fc fragment to confirm specificity of binding to the extracellular TGF-β RII domain. An injection of buffer over the captured antigen surface was used for double referencing. […] All runs were carried out at 25° C. using HBS-EP buffer as running buffer. Data were generated using the BIACORE™ T200 and fitted to the 1:1 binding model inherent to the software. […] The DOM23h-271 dAbs and the DOM23h-439 lineages were run in separate experiments.

Kd	koff	kon	Binder
0.0423 nM	0.000373 s⁻¹	8.83e+06 M⁻¹ s⁻¹	B10
0.00289 nM	6.91e-05 s⁻¹	2.39e+07 M⁻¹ s⁻¹	B11

Target: T4, cynomolgus TGF-β RII/Fc (cynomolgus)
T4 construct: extracellular domain; also called Cyno TGFBRII; Cyno TGFbRII
Assay: as above
Protocol: as §1

Kd	koff	kon	Binder
0.149 nM	0.0012 s⁻¹	8.04e+06 M⁻¹ s⁻¹	B10
0.00677 nM	0.000147 s⁻¹	2.17e+07 M⁻¹ s⁻¹	B11
